Laboratory results: paper PMC11678472, “Comparative Analysis of Symmetry Parameters in the E2 Inner Core of the Pyruvate Dehydrogenase Complex” (International Journal of Molecular Sciences, 2024)

Biological target: the molecule itself
Experiment: cryo-EM structure; single-particle analysis of purified truncated E2 (4 uL of 100 nM) on a holey carbon grid, vitrified at 4 °C and 100% humidity; 69,946 particles; reconstructed with C1, C5, D2, T and I symmetry (4.93 to 4.20 Å)

B1: truncated dihydrolipoyl acetyltransferase (E2) of the pyruvate dehydrogenase complex of B. stearothermophilus, amino acids 185 to 425 (catalytic core domain … (domain or fragment, Bacillus stearothermophilus, UniProt P11961 185-425, looked up)
chain: AAAKPATTEGEFPETREKMSGIRRAIAKAMVHSKHTAPHVTLMDEADVTKLVAHRKKFKAIAAEKGIKLTFLPYVVKALVSALREYPVLNTSIDDETEEIIQKHYYNIGIAADTDRGLLVPVIKHADRKPIFALAQEINELAEKARDGKLTPGEMKGASCTITNIGSAGGQWFTPVINHPEVAILGIGRIAEKPIVRDGEIVAAPMLALSLSFDHRMIDGATAQKALNHIKRLLSDPELLL
notes: dihydrolipoyl acetyltransferase (E2) of the pyruvate dehydrogenase complex, Bacillus stearothermophilus, UniProt P11961; Forms an icosahedral inner core built of trimeric units; It says only that I symmetry has 60 elements; The monomer runs at about 32 kDa on SDS-PAGE, more than residues 185-425 alone, so tags are probably present; also called truncated E2; E2 inner core complex; source: E. coli …
B1 was tested, and the “stoichiometry N” value was 3.
